Source: US20260234242A1 (HAINAN SIMCERE ZAIMING PHARMACEUTICAL, published 2026)
Where a chain is given by its changes, count along the chain named. One block for each binder: values may come before it.

Columns and labels:
[1] = molecular target: T1, human CDH6 on tumor cells (OVCAR3 cells, PA-1 cells) (human, UniProt P55285 54-790); experiment: FACS, PA-1 cells
T1 sequence: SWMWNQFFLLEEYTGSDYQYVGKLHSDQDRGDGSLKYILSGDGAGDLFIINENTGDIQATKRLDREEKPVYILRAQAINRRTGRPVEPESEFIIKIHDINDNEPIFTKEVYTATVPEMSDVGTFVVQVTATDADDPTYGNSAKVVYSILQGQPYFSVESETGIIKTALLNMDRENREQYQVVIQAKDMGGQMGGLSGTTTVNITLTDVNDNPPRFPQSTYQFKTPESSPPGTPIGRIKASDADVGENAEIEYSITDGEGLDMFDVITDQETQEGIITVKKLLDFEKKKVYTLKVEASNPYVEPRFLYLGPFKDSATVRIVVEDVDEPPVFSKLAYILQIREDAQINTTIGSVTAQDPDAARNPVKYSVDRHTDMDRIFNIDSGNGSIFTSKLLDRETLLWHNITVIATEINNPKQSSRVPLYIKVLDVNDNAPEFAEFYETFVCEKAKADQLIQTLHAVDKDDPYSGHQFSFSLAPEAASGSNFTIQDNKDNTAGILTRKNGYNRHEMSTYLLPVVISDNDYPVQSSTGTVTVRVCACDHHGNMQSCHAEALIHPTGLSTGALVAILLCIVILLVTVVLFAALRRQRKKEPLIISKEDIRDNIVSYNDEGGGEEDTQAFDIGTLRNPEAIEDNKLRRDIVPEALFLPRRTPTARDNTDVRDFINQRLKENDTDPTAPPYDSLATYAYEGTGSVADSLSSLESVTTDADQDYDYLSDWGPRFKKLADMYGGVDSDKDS
Protocol: OVCAR3 cells with high expression of CDH6 and PA-1 cells with moderate expression of CDH6 were used to detect the binding activity of the antibodies to the cells. […] The cells were washed once with PBS, counted, resuspended to 2×10⁶ cells/mL in an FACS buffer (PBS+2% FBS), and then added to a 96-well plate at 50 μL/well. The chimeric antibodies were diluted with FACS buffer (PBS+2% FBS) and added to the 96-well plate at 50 μL/well, and the plate was incubated at 4° C. for 1 h. […] The dilution was added to the 96-well plate at 50 μL/well, and the plate was incubated at 4° C. for 1 h. After the plates were centrifuged and washed 2 times with PBS, the cells were resuspended in an FACS buffer. The mean fluorescence intensity (MFI) was measured using FACS Canton II (BD). Analysis was performed by the GraphPad Prism software, data were fitted, and EC50 values were calculated. The chimeric antibodies tested had strong binding to both OVCAR3 cells and PA-1 cells.
According to the above sequences, heavy chain (HC) and light chain (LC) plasmids were constructed (the nucleic acid sequences encoding the VH and VL of the antibodies were recombined into an expression vector carrying a signal peptide (SEQ ID NO: 132, […]) and a heavy chain constant region/light chain constant region sequence to obtain recombinant plasmids expressing VH-CH1-Fc/VL-CL). According to the expression and purification methods in Example 2, the hCDH6-14 humanized antibodies were obtained, and the binding activity of the humanized antibodies was detected by ELISA and FACS (see 2.2 and 2.3 for the method).

[2] = molecular target: T2, his-tagged human CDH6 extracellular region protein (hCDH6 ECD-his) (human, UniProt P55285 19-615); experiment: ELISA, coated antigen
T2 construct: also called Human CDH6-his; hCDH6-his; not shown: his tag
T2 sequence: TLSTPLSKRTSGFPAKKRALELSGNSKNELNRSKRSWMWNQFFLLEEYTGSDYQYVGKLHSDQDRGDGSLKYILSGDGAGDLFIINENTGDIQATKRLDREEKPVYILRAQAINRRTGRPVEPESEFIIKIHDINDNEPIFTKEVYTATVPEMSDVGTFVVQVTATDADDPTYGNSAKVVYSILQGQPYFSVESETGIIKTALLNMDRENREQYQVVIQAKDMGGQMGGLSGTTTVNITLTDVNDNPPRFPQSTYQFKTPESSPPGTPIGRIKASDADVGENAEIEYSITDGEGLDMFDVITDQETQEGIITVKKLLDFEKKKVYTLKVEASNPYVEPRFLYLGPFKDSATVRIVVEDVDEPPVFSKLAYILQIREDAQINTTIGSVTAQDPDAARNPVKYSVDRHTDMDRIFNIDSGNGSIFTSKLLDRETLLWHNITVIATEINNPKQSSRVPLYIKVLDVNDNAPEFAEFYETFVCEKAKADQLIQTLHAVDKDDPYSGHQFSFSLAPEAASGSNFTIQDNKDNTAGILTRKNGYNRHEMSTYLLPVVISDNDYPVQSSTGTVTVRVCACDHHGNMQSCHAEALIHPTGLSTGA
Protocol: Human CDH6 protein (hCDH6 ECD-his, conventionally synthesized), monkey CDH6 protein (cynoCDH6 ECD-his, conventionally synthesized; the cynoCDH6 ECD sequence was derived from Uniprot #A0A2K5TW62 (19-615)), and murine CDH6 protein (mCDH6 ECD-his, conventionally synthesized; the mCDH6 ECD sequence was derived from Uniprot #P97326 (19-615)) were diluted with PBS to a final concentration of 1 μg/mL, and added to a 96-well ELISA plate at 100 μL/well. The plate was incubated at 4° C. overnight. The next day, the plate was washed 3 times with a plate washing solution (PBS+0.01% (v/v) Tween 20), and a blocking buffer (PBS+0.01% (v/v) Tween 20+2% (w/w) BSA) was added for blocking at room temperature for 2 h. The blocking buffer was discarded, and the plate was washed 3 times. The chimeric antibodies were diluted with 1% BSA+PBS (purchased from Cytiva, Cat. No. SH30264.01) and added to the 96-well plate at 50 μL/well. After incubation at 37° C. for 2 h, the plate was washed 3 times with a plate washing solution. […] The plate was incubated at 37° C. for 1 h and then washed 5 times with a plate washing solution. A TMB substrate (purchased from Seracare, Cat. No. 5120-0077) was added at 50 μL/well and incubated at room temperature for 10 min, then a stop solution (1.0 N HCl) was added at 50 μL/well. OD450 nm values were read using a microplate reader (Biotek). Analysis was performed by the GraphPad Prism software, data were fitted, and EC50 values were calculated. The chimeric antibodies tested all had strong binding to the human CDH6 protein, the monkey CDH6 protein, and the murine CDH6 protein.
According to the above sequences, heavy chain (HC) and light chain (LC) plasmids were constructed (the nucleic acid sequences encoding the VH and VL of the antibodies were recombined into an expression vector carrying a signal peptide (SEQ ID NO: 132, […]) and a heavy chain constant region/light chain constant region sequence to obtain recombinant plasmids expressing VH-CH1-Fc/VL-CL).

B1: hCDH6-14-H1L1 (antibody, V domains shown)
VH: EVQLVQSGAEVKKPGASVKVSCKASGYTFTDNYINWVRQAPGQRLEWMGWIYPGTGNSYYNEKFKGRVTITVDTSASTAYMELSSLRSEDTAVYYCASSYGDSFDYWGQGTTVTVSS
VL: DIQMTQSPSSLSASVGDRVTITCRASQDIRNYLNWYQQKPGKAFKLLISYTSRLHSGVPSRFSGSGSGTDFTFTISSLQPEDIATYYCQQYSQLPWTFGGGTKVEIK
notes: Humanized
EC50 [1]: 0.26 nM
Max MFI [1]: 3680 MFI
EC50 [2]: 0.059 nM
Max OD450 [2]: 2.69 OD450

B2: hCDH6-14-H1L3 (antibody, V domains shown)
VH: B1 VH
VL: DIVMTQSPDSLAVSLGERATINCRASQDIRNYLNWYQQKPGQTPKLLISYTSRLHSGVPDRFSGSGSGTDFTLTISSLQAEDVAVYYCQQYSQLPWTFGGGTKVEIK
notes: Humanized
EC50 [1]: 0.27 nM
Max MFI [1]: 3580 MFI
EC50 [2]: 0.056 nM
Max OD450 [2]: 2.68 OD450

B3: hCDH6-14-H4L3 (antibody, V domains shown)
VH: B1 VH with R44G
VL: B2 VL
notes: Humanized
EC50 [1]: 0.27 nM
Max MFI [1]: 3870 MFI
EC50 [2]: 0.084 nM
Max OD450 [2]: 2.67 OD450

B4: hCDH6-14-H4L2 (antibody, V domains shown)
VH: B1 VH with R44G
VL: B1 VL with K42G, F44P
notes: Humanized
EC50 [1]: 0.26 nM
Max MFI [1]: 3570 MFI
EC50 [2]: 0.089 nM
Max OD450 [2]: 2.64 OD450

B5: hCDH6-14-H2L1 (antibody, V domains shown)
VH: B1 VH with V2I
VL: B1 VL
notes: Humanized
EC50 [1]: 0.25 nM
Max MFI [1]: 3560 MFI
EC50 [2]: 0.076 nM
Max OD450 [2]: 2.65 OD450

B8: hCDH6-14-H4L1 (antibody, V domains shown)
VH: B1 VH with R44G
VL: B1 VL
notes: Humanized
EC50 [1]: 0.25 nM
Max MFI [1]: 3820 MFI
EC50 [2]: 0.052 nM
Max OD450 [2]: 2.62 OD450

B14: hCDH6-14-H1L2 (antibody, V domains shown)
VH: B1 VH
VL: B1 VL with K42G, F44P
notes: Humanized
EC50 [1]: 0.22 nM
Max MFI [1]: 3600 MFI
EC50 [2]: 0.128 nM
Max OD450 [2]: 2.84 OD450

B16: hCDH6-14-H5L3 (antibody, V domains shown)
VH: B1 VH with V5Q
VL: B2 VL
notes: Humanized
EC50 [1]: 0.21 nM
Max MFI [1]: 3600 MFI
EC50 [2]: 0.092 nM
Max OD450 [2]: 2.72 OD450

B17: hCDH6-14-H6L1 (antibody, V domains shown)
VH: B1 VH with Y95L
VL: B1 VL
notes: Humanized
EC50 [1]: 0.24 nM
Max MFI [1]: 3700 MFI
EC50 [2]: 0.067 nM
Max OD450 [2]: 2.7 OD450

Further binders by falling EC50 [1], results first:

EC50 [1]: 0.27 nM
Max MFI [1]: 3930 MFI
EC50 [2]: 0.098 nM
Max OD450 [2]: 2.54 OD450
B11: hCDH6-14-H2L2 (antibody, V domains shown)
VH: B1 VH with V2I
VL: B1 VL with K42G, F44P
notes: Humanized

EC50 [1]: 0.26 nM
Max MFI [1]: 3490 MFI
EC50 [2]: 0.096 nM
Max OD450 [2]: 2.62 OD450
B7: hCDH6-14-H3L1 (antibody, V domains shown)
VH: B1 VH with V2I, I70L
VL: B1 VL
notes: Humanized

EC50 [1]: 0.26 nM
Max MFI [1]: 3540 MFI
EC50 [2]: 0.093 nM
Max OD450 [2]: 2.62 OD450
B15: hCDH6-14-H6L2 (antibody, V domains shown)
VH: B1 VH with Y95L
VL: B1 VL with K42G, F44P
notes: Humanized

EC50 [1]: 0.25 nM
Max MFI [1]: 3780 MFI
EC50 [2]: 0.079 nM
Max OD450 [2]: 2.81 OD450
B12: hCDH6-14-H5L1 (antibody, V domains shown)
VH: B1 VH with V5Q
VL: B1 VL
notes: Humanized

EC50 [1]: 0.23 nM
Max MFI [1]: 3320 MFI
EC50 [2]: 0.109 nM
Max OD450 [2]: 2.58 OD450
B6: hCDH6-14-H5L2 (antibody, V domains shown)
VH: B1 VH with V5Q
VL: B1 VL with K42G, F44P
notes: Humanized

EC50 [1]: 0.23 nM
Max MFI [1]: 3490 MFI
EC50 [2]: 0.074 nM
Max OD450 [2]: 2.63 OD450
B10: hCDH6-14-H3L2 (antibody, V domains shown)
VH: B1 VH with V2I, I70L
VL: B1 VL with K42G, F44P
notes: Humanized

EC50 [1]: 0.22 nM
Max MFI [1]: 3780 MFI
EC50 [2]: 0.09 nM
Max OD450 [2]: 2.48 OD450
B9: hCDH6-14-H2L3 (antibody, V domains shown)
VH: B1 VH with V2I
VL: B2 VL
notes: Humanized

EC50 [1]: 0.19 nM
Max MFI [1]: 3470 MFI
EC50 [2]: 0.113 nM
Max OD450 [2]: 2.56 OD450
B13: hCDH6-14-H3L3 (antibody, V domains shown)
VH: B1 VH with V2I, I70L
VL: B2 VL
notes: Humanized
